Assay results from the supplement of paper PMC9233669.
This sample holds only a part of the variants without activity.

Tests used:
[1] = tested on: biotinyl-Met-oxazolone; test: self-aminoacylation, catalytic enhancement (BMO) (fold over background); higher = more active; k-Seq, kA / k0A0; sequences stand for … in GGGAAUGGAUCCACAUCUACGAAUUC…UUCACUGCAGACUUGACGAAGCUG
Outline: (§1)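 Mutagenized RNA pools with a 21-nt variable region (0.43 μM) were reacted with each biotinyl-aminoacyl-oxazolone at 2–1250 μM for 90 minutes at room temperature, in 50 μL HEPES/NaCl/KCl/MgCl2/CaCl2 buffer containing 5% acetonitrile at pH 6.9–7.0. RNA captured on streptavidin was quantified by triplicate qPCR and by Illumina sequencing. The fraction reacted for each sequence was fit to a pseudo-first-order model with bootstrapping, and catalytic enhancement is the median kA divided by the uncatalyzed rate, taken as the low-activity peak of a bimodal Gaussian fit.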

[2] = tested on: biotinyl-Ile-oxazolone; test: self-aminoacylation, catalytic enhancement (BIO) (fold over background); higher = more active; k-Seq, kA / k0A0; sequences stand for … in GGGAAUGGAUCCACAUCUACGAAUUC…UUCACUGCAGACUUGACGAAGCUG
Outline: as §1

[3] = tested on: biotinyl-Leu-oxazolone; test: self-aminoacylation, catalytic enhancement (BLO) (fold over background); higher = more active; k-Seq, kA / k0A0; sequences stand for … in GGGAAUGGAUCCACAUCUACGAAUUC…UUCACUGCAGACUUGACGAAGCUG
Outline: as §1

[4] = tested on: biotinyl-Trp-oxazolone; test: self-aminoacylation, catalytic enhancement (BWO) (fold over background); higher = more active; k-Seq, kA / k0A0; sequences stand for … in GGGAAUGGAUCCACAUCUACGAAUUC…UUCACUGCAGACUUGACGAAGCUG
Outline: as §1

[5] = tested on: biotinyl-Phe-oxazolone; test: self-aminoacylation, catalytic enhancement (BFO) (fold over background); higher = more active; k-Seq, kA / k0A0; sequences stand for … in GGGAAUGGAUCCACAUCUACGAAUUC…UUCACUGCAGACUUGACGAAGCUG
Outline: as §1

[6] = tested on: biotinyl-Val-oxazolone; test: self-aminoacylation, catalytic enhancement (BVO) (fold over background); higher = more active; k-Seq, kA / k0A0; sequences stand for … in GGGAAUGGAUCCACAUCUACGAAUUC…UUCACUGCAGACUUGACGAAGCUG
Outline: as §1

| Sequence | self-aminoacylation [1] | self-aminoacylation [2] | self-aminoacylation [3] | self-aminoacylation [4] | self-aminoacylation [5] | self-aminoacylation [6] |
| --- | --- | --- | --- | --- | --- | --- |
| CCACUCUUCAAGCAAUCGGUU [Fam1B.1 aminoacylation ribozyme variant] | 1.53 | 1.53 | 1.16 | 2.27 | 2.51 | 1.6 |
| CCACUUAAAACAAUCGGUCUG [Fam1A.1 aminoacylation ribozyme variant] | 1.44 | 1.11 | 1.05 | 1.12 | 0.816 | 1.13 |
| CCACUUCAAACAAUCGGACUG [Fam1A.1 aminoacylation ribozyme variant] | 1.03 | 0.9 | 1.26 | 14.9 | 22.6 | 1.1 |
| CCACUUCAAACAAUCGUUCUG [Fam1A.1 aminoacylation ribozyme variant] | 0.479 | 0.582 | 0.653 | 1.09 | 2.21 | 0.674 |
| CCACUUCAAAGAAUCGGUCUG [Fam1A.1 aminoacylation ribozyme variant] | 1.04 | 1.15 | 1.32 | 8.92 | 11.4 | 1.13 |
| CCACUUCGAACAAUCGGUCUG [Fam1A.1 aminoacylation ribozyme variant] | 1.77 | 1.15 | 1.41 | 1.32 | 1.26 | 1.24 |
| CCAGACGUCAAGCAAUCGGUC [Fam1B.1 aminoacylation ribozyme variant] | 1.52 | 1.24 | 1.99 | 0.65 | 0.503 | 1.99 |
| CCAGACUCCAAGCAAUCGGUC [Fam1B.1 aminoacylation ribozyme variant] | 1.17 | 1.22 | 1.23 | 1.48 | 2.16 | 1.23 |
| CCAGAGUUCAAGCAAUCGGUC [Fam1B.1 aminoacylation ribozyme variant] | 1.21 | 1.36 | 1.36 | 1.72 | 1.42 | 1.2 |
| CCAGUCUUCAAGCAAUCGGUC [Fam1B.1 aminoacylation ribozyme variant] | 1.79 | 1.67 | 2.8 | 38.6 | 68.5 | 1.63 |
| CCAUACUGCAAGCAAUCGGUC [Fam1B.1 aminoacylation ribozyme variant] | 1.15 | 1.14 | 0.996 | 0.938 | 1.06 | 1.14 |
| CCAUACUUCAAGCAAUAGGUC [Fam1B.1 aminoacylation ribozyme variant] | 0.505 | 0.72 | 0.597 | 0.513 | 1.03 | 0.633 |
| CCAUACUUCAAGCAAUCGAUC [Fam1B.1 aminoacylation ribozyme variant] | 0.45 | 0.666 | 0.489 | 0.638 | 1.01 | 0.842 |
| CCAUACUUCAAGCAAUCGGUA [Fam1B.1 aminoacylation ribozyme variant] | 1.22 | 1.33 | 1.1 | 1.1 | 1.04 | 1.26 |
| CCAUACUUCAAGCAAUCGGUC [Fam1B.1 aminoacylation ribozyme variant] | 0.921 | 1.07 | 1.14 | 10.1 | 22.5 | 1.11 |
| CCAUACUUCAAGUAAUCGGUC [Fam1B.1 aminoacylation ribozyme variant] | 0.825 | 0.914 | 1.07 | 5 | 8.18 | 0.861 |
| CCCCACUUCAAGCAAUCGAUC [Fam1B.1 aminoacylation ribozyme variant] | 0.533 | 0.768 | 0.67 | 1.27 | 2.79 | 0.93 |
| CCCCACUUCAAGCGAUCGGUC [Fam1B.1 aminoacylation ribozyme variant] | 2.53 | 1.69 | 1.68 | 4.88 | 5.13 | 2.02 |
| CCGAACUUCAAGCAAUCGGUC [Fam1B.1 aminoacylation ribozyme variant] | 1.43 | 1.26 | 1.68 | 20.6 | 34.4 | 1.54 |
| CCGCACUUAAAGCAAUCGGUC [Fam1B.1 aminoacylation ribozyme variant] | 1.1 | 1.13 | 1.05 | 1.15 | 0.932 | 1.25 |
| CCGCACUUCAAGCAAUGGGUC [Fam1B.1 aminoacylation ribozyme variant] | 0.802 | 0.918 | 1.04 | 1.08 | 1.13 | 1.21 |

| Sequence | self-aminoacylation [1] | self-aminoacylation [2] | self-aminoacylation [3] | self-aminoacylation [4] | self-aminoacylation [5] | self-aminoacylation [6] |
| --- | --- | --- | --- | --- | --- | --- |
| CCGCACUUCAAGGAAUCGGUC [Fam1B.1 aminoacylation ribozyme variant] | 1.37 | 1.45 | 1.44 | 10.8 | 10.7 | 1.52 |
| CCGCACUUCAAUCAAUCGGUC [Fam1B.1 aminoacylation ribozyme variant] | 1.26 | 1.27 | 2.03 | 28.7 | 39.7 | 1.62 |
| CCGCACUUCGAGCAAUCGGUC [Fam1B.1 aminoacylation ribozyme variant] | 1.46 | 1.22 | 1.46 | 2.26 | 5.29 | 2.27 |
| CCGCAGUUCAAGCAAUCGGUC [Fam1B.1 aminoacylation ribozyme variant] | 1.96 | 1.58 | 1.85 | 6.86 | 5.75 | 1.82 |
| CCGCUCUUCAAGCAAUCGGUC [Fam1B.1 aminoacylation ribozyme variant] | 1.6 | 1.42 | 1.92 | 26.3 | 35.5 | 1.76 |
| CCGUACUUCAAGCAAUCGGUC [Fam1B.1 aminoacylation ribozyme variant] | 1.06 | 1.16 | 1.42 | 18.4 | 34.5 | 1.3 |
| CCUCACCUCAAGCAAUCGGUC [Fam1B.1 aminoacylation ribozyme variant] | 0.79 | 1.02 | 0.963 | 2.12 | 4.38 | 1.3 |
| CCUCACUUCAAACAAUCGGUC [Fam1B.1 aminoacylation ribozyme variant] | 1.51 | 1.21 | 2.35 | 37.3 | 93.7 | 1.25 |
| CCUCACUUCAAGCAACCGGUC [Fam1B.1 aminoacylation ribozyme variant] | 0.857 | 0.978 | 0.806 | 1.29 | 1.67 | 0.834 |
| CCUCACUUCAAGCAAUCGGUA [Fam1B.1 aminoacylation ribozyme variant] | 1.51 | 1.05 | 1.22 | 1.57 | 1.91 | 1.11 |
| CCUCACUUCAAGCAAUCGGUG [Fam1B.1 aminoacylation ribozyme variant] | 6.58 | 4.12 | 9.05 | 6.88 | 25.3 | 4.01 |
| CCUCACUUCCAGCAAUCGGUC [Fam1B.1 aminoacylation ribozyme variant] | 0.651 | 1.05 | 0.861 | 0.965 | 1.23 | 1.06 |
| CCUCACUUUAAGCAAUCGGUC [Fam1B.1 aminoacylation ribozyme variant] | 0.544 | 0.734 | 0.619 | 0.683 | 1.2 | 0.688 |
| CCUCCCUUCAAGCAAUCGGUC [Fam1B.1 aminoacylation ribozyme variant] | 0.881 | 1.2 | 1.17 | 8.87 | 13.8 | 1.13 |
| CGACACUUCAAGCAAUCGGGC [Fam1B.1 aminoacylation ribozyme variant] | 1.36 | 1.91 | 1.85 | 2.12 | 8.3 | 2.43 |
| CGACACUUCAAGCAAUCGGUA [Fam1B.1 aminoacylation ribozyme variant] | 1.44 | 1.86 | 1.41 | 2.9 | 2.02 | 1.84 |
| CGACACUUCAAGCAUUCGGUC [Fam1B.1 aminoacylation ribozyme variant] | 1.64 | 1.8 | 1.55 | 1.51 | 3.31 | 1.99 |
| CGACACUUCCAGCAAUCGGUC [Fam1B.1 aminoacylation ribozyme variant] | 1.14 | 1.56 | 1.19 | 1.15 | 0.915 | 1.49 |
| CGACAUCAAACAAUCGGUCUG [Fam1A.1 aminoacylation ribozyme variant] | 1.05 | 1.11 | 0.934 | 2.71 | 3.7 | 1.19 |
| CGACUUAAAACAAUCGGUCUG [Fam1A.1 aminoacylation ribozyme variant] | 1.48 | 1.33 | 1.26 | 1.06 | 1.15 | 1.17 |
| CGACUUCAAACAAGCGGUCUG [Fam1A.1 aminoacylation ribozyme variant] | 1.6 | 1.39 | 1.11 | 1.45 | 1.23 | 1.37 |
